Reference: paper PMC2853111
Read-outs that look alike come from different tables or passages of the source.

B1: consensus ERE probe (ERE-EMSA) (dsDNA)
DNA 1: GGATCTAGGTCACTGTGACCCCGGATC
DNA 2: GATCCGGGGTCACAGTGACCTAGATCC
B2: B68 ERE probe (3' ERE, MIRb) (dsDNA)
DNA 1: TTTCTGGGTCACACCGACCTGAGCT
DNA 2: AGCTCAGGTCGGTGTGACCCAGAAA
B3: D66 ERE probe (5' ERE, MIRb) (dsDNA)
DNA 1: CACCCAGGTCAGTCTGACATCTAAG
DNA 2: CTTAGATGTCAGACTGACCTGGGTG

Key:
[1] = target: T1, estrogen receptor alpha (rERα, NR3A1) (UniProt P03372 1-595); test: EMSA
[2] = target: T1, estrogen receptor alpha (rERα, NR3A1); test: EMSA; remark: listed apart in the source

T1 sequence (P03372 whole entry): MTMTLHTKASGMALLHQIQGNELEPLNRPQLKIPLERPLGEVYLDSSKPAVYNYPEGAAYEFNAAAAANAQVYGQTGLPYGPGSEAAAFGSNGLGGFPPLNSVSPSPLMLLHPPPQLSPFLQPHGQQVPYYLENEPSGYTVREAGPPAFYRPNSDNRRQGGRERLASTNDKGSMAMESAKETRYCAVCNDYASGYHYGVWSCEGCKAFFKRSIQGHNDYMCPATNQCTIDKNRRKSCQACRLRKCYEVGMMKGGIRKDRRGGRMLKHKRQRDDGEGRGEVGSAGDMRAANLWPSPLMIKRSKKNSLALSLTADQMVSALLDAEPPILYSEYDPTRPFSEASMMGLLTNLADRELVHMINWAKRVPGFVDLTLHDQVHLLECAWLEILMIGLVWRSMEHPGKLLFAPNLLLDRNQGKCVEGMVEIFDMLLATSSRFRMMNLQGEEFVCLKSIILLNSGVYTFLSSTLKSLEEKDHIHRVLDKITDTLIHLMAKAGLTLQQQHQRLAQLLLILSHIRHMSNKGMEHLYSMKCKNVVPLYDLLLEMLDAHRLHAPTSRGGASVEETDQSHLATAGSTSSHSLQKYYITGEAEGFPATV

| Binder | binding result [1] | binding result [2] |
| --- | --- | --- |
| B1 | binds | – |
| B2 | – | binds |
| B3 | – | binds |
